Measurements taken from article PMC3326313.

How the values were obtained:
[1] = target: T1, GB1-His6-SRSF2 RRM wild type (Homo sapiens, UniProt Q01130 9-101); test: NMR chemical shift titration
T1 sequence: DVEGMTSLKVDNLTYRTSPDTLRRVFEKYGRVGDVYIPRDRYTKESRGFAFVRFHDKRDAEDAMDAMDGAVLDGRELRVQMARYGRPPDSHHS

[2] = target: T1, GB1-His6-SRSF2 RRM wild type; test: ITC

B1: 5-mer GAGUA (ssRNA)
RNA: GAGUA
Kd [1]: ~500 µM

B2: 9-mer AGCAGAGUA (ssRNA)
RNA: AGCAGAGUA
Kd [2]: 0.061 ± 0.001 µM
